Residue numbers refer to the chain shown, from its start. In names and notes the source's numbering stands.
Target: DR4-Ig (death receptor 4, Ig fusion) (UniProt O00220)
Test: SPR

Chain of DR4-Ig (death receptor 4, Ig fusion) (O00220 24-239): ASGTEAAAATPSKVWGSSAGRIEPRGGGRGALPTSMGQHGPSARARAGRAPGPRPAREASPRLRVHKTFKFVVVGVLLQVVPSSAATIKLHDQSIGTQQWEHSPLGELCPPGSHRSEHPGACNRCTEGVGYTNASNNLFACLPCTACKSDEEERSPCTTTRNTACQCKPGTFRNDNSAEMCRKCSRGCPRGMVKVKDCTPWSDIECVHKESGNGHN

B1: rhTRAIL variant 4C7 (G131R/R149I/S159R/N199R/K201H/S215D) (ligand)
chain: VRERGPQRVAAHITGTRRRSNTLSSPNSKNEKALGIKINSWESSRRGHSFLSNLHLRNGELVIHEKGFYYIYSQTYFRFQEEIKERTHNDKQMVQYIYKYTDYPDPILLMKSARNSCWSKDAEYGLYSIYQGGIFELKENDRIFVSVTNEHLIDMDHEASFFGAFLVG
With B1 the Kd was 0.021 ± 0.01 nM, the koff was 5.9e-05 s⁻¹ and the kon was 2.81e+06 M⁻¹ s⁻¹.

B2: rhTRAIL variant 4C9 (G131R/R149I/S159R/S215D) (ligand)
chain: B1 chain with R86N, H88K
For B2, the Kd was 0.025 ± 0.02 nM, the koff was 5.8e-05 s⁻¹ and the kon was 2.35e+06 M⁻¹ s⁻¹.

Reference: article PMC3035906 (Cell Death & Disease, 2010)
